Data published in the DeepSol protein solubility set.

test: soluble on expression in E. coli; label from the status in PepcDB or PDB records

Sequence	soluble on expression in E. coli
AHHHHHHGSITRGRVWKFGDNISTDAITPGRYNLTKDPNELAKIAFIEERPEFSKEVKPGDVVVGGKNFGIGSSRESAALALKAAGVGGVIAKSFGRIFFRNAVNLGLPLLIGNTDPLLDGEIVEVNWRSGEVKKEDGEVLKFKPLDSFLLAIVEEGGIIEYIRRRGDLWIQ	soluble
MNRVQSGFRVPARVLNSLAHLQDGLNIFMDPDWRQIRHVDDWALAITMESAELIDSYPWKWWKNVKAQTDMHNVRIEIADILHFSLSGEIQKRTQDEKGADDVALKSLKEMGFFCRPPAHAKSTAASGQRTNGGDGDGDDELLELMFFPLTEVASAVATFRNIIQLASIYRFDLITKGLLLAAQDLDFNLVGYYVAKYTLNQIRQLKGYKEGVYVKVREGVEDNELLHECVQSVSVEDVLNEGTYLKAWEKIACSVFDAFGMPEEERRHAYDWLKSAALDGKG	soluble
MSKADENDANLTENGVHKSRSDSEINSHTSSIHKSSSQHRRLFIDDISTIEASAGDRVWATCSGAGDATELITIHFLGDQFEESAIDVVRKHSLVMFTVPSLKVDSELEVELRFSTSNDNVTTISFKYLPRKIQRSHTQEISLFDNLLEFATNGDTISLLQPFVAQISKQDIEGNTVFHVAAKNGQSFSLKLLLSVIPPDIKNEVINVQNTHGLTALHVAIRTGDPDAVHYLMNHGAKIDISDNHGSTALHYLGDAYNESIFKEILEPSRGQRFDVNQLNSEGFAPIHVAVRRLKLSLIEMLIEAGALIDFLDTEKKRNALMHAIEMNDFETIQLLVERGSGTNIEDESGETALSLAVKNVNYPVIGLLLDNGADPNRQNSKGICLADSEDSVIQNIINGDRPELPKKEAFGVPNDLAISRSPLFGRSHPDQAPGEESGRHRVVKRSREEILNDAQTLLAETDSMAPRVSRISTSESEDEQQPGPSTSSGTRRRRSEWDRNPKLSDSVCNLDYLTRIRVAKIFDDQCKWQRLAQQLNCDHMVELISICSSGDDSSPTMILLDQFEQLEDSSISRLRDAMNQMAEDDAVKLIDSRYVY	not soluble
MGKEIQLKPKANVSSYVHFLLNYRNKFKEQQPSTYVGFKEFSRKCSEKWRSISKHEKAKYEALAKLDKARYQEEMMNYVGKRKKRRKRDPQAPRRPPSSFLLFCQDHYAQLKRENPNWSVVQVAKATGKMWSTATDLEKHPYEQRVALLRAKYFEELELYRKQCNARKKYRMSARNRCRGKRVRQS	not soluble
MFYGGIDVAKYRHEICIVDESGNVILQIFVDNTRNGLDKLIHNLKRLEIEVSNVEFCLEATGHYWLSLYYHLTELGYKIHVINPIQSDALRNFYVRKTKTDRKDAHLLADIVRFGHISETKLASETVLKLQNLSRLRFEFVRQVGGLKNRVLGILDRIFPEYPQCFSNVFINTSRELLKSFTAPEDLAEADLSELTDFLNKHSRGRLGVDRAKQIQALAKGTFGINIALDAFTLELRLLVEQIEFIEEQISVIEEAIDQVMEEMRPSKDTAYRHVLETIPGIGPVLAASIIGEIGDINRFPNAKALVAYAGLDATVRSSGQFEGTRNRISKRGSPVLRHSIWLAAVSARRFNPEMKEFFEKKRSEGKHTLVATGAVARRMVHLIYSLWKDNRPFDPNYQWSPTNSR	not soluble
MPGDSMCQAMAGNERHMLTSVKTGTYTMPVLHNRVSNEELKARMLAETEPRTTVSFYKYFTIDDPKAFRDRLYIQLEQYKVFGRIYIAAEGINAQISVPNNQFDAFKTGLFSAHPALDQIRLNIALEDDGKSFWVLRMKVRERIVADGIDDPTFNPANVGQYLKADRVNAMADDPDTVFVDMRNHYEYEVGHFQNALEVPSDTFREQLPMAVDMLDDIRDKNIVMYCTGGIRCEKASAYMLHHGFKNVYHVEGGIIEYARQAKAQGLPLKFIGKNFVFDERMGERISDDVIAHCHQCGASCDSHTNCRNEGCHLLFIQCPSCAAKYEGCCSTQCQDEMKLPLEEQRAIRSGRENGMKIFNKSKGLLQSTLHIPAPAAKDNAELEHHHHHH	not soluble
MYSYKHPIYCANPVLSGQKIIELPPMNVPFSTYYEVYVTVQDHIPISSFVSMDLIMKNDNYSGGNFQVYSKDVSGILASHSNHFSPVTYSMQLQYEYKNWAEEDTQVRVYSDRLPPYWLPYCD	not soluble
MGSDKIHHHHHHMIKSVLVIRNDKIGDFVLTWPALYELKMALPNASIEVFVDPVLKDFAMACPYIDHVIVDDGDDQAITKAFAERHYDAVIVSRSQIRTYRLLRKLDIPYKLAPKLNWYQYLYQHRTSIEVPKGLGGWRKSCMMVERFLADHRIPVPTLPTRYWDLSHERRKWQDHYGQQGEERLIFAHPGTGGSSGGISPSDFAGLLAQVDKLTAIECKFVLTYSGQEIALAQQIYDLLSAQGIKVVMAEPLASLADFAKSLVAADMFMAGSTGPLHIAGLHNVPTVGFYAGRRSAPKVRWQTLTQSERRLAFTPPVGKKTGRNMALIDFDLAAKEIAAFLDTQYASQSAVS	not soluble
MDSNDLEASFTSRLPPEIVAALKRKSSRDPNSRFPRKLHMLLTYLASNPQLEEEIGLSWISDTEFKMKKKNVALVMGIKLNTLNVNLRDLAFEQLQHDKGGWTQWKRSGFTRNSVFEDPTQNDSPMHHHHHH	soluble
MRKQLPVICVAAGIVLLAACTNDGGQQQTTVAPQPAVCNGPTVEISGAEPRYEPLNPTANQDYQRDGKSYKIVQDPSRFSQAGLAAIYDAEPGSNLTASGEMFDPMQLTAAHPTLPIPSYARITNLANGRMIVVRINDRGPYGTDRVISLSRAAADRLNTSNNTKVRIDPIIVAPDGSLSGPGMACTTVAKQTYALPPRPDLSGGMGSASSAPAQPQGDVLPVSNSTLKSDDTTGAPVSSSGFLGAPTTLAPGVLESNEPTPAPQPAPVSAPVAAPATAPATATPVSAPAAAAPVSAPVSAPAAAASGRFVVQVGAVSDQTRAQQYQQRLSQQFSVPGRVIQNGAVWRIQLGPFASKAEASALQQRLQTEAQLQSFIASAQ	not soluble
METTIFQFQKTFFTKPPKERVFVLHGEEQYLIRTFLSKLKEKYGENYTVLWGDEISEEEFYTALSETSIFGGSKEKAVVIYNFGDFLKKLGRKKKEKERLIKVLRNVKSNYVFIVYDAKLQKQELSSEPLKSVASFGGIVVANRLSKERIKQLVLKKFKEKGINVENDALEYLLQLTGYNLMELKLEVEKLIDYASEKKILTLDEVKRVAFSVSENVNVFEFVDLLLLKDYEKALKVLDSLISFGIHPLQIMKILSSYALKLYTLKRLEEKGEDLNKAMESVGIKNNFLKMKFKSYLKANSKEDLKNLILSLQRIDAFSKLYFQDTVQLLRDFLTSRLEREVVKNTSHGG	soluble
MAHHHHHHMSRTLTTTQPSVASSPASSSSGSTHQRPSADQLAETVHQMDEENALEFVSIDATSRDQVFHFLHDHPDATAVVNAVGLLTRNYEDARQVNGDVMTNIAAGVFHPKLAQSVQKVVYVSAEPYNLYSRRILGSKHLLKGYFHGKRIGEKAVLENLGNKGVVLRPSFIYGTRHVLVASAMNPDAVSTLSLPLGWIGLPLDKLLTAIGGGKLLMPPVCVDVVAEAAVRACAWANQPGKDIHGICDVYRMRDICNAVDPSLHEDRNGTVTASTASKEASTVKNDR	not soluble
MSFSADEVRFLAQSEREIAEMTADLDLSKKSMISDVATLRKHFGDFGRAVAELAGARRSAVGKLPQDWLMCQESAQQTTPPAVSAERARRLKTALGENVIVHDVTCSIGTEGHELIDAGLRYLGSDLDFSRTLMAAHNLQGKNALIFRADALQPASRGADVIIADPARRAGGKRITNPAQLLPPLPSLLDAWINQPLAVKCAPGLDFSEWPGLVSIASVDGGVKEACLYTTDLADGETREAIVIKDGLIDRITNFEDDATGQDLAAAPGEFIIDPDGAIVRAGLVRHYAVREQLWMLDERIAYLTGNRIPEGTSGFRFIEEVPLKKLKSAMAAHDAGAVEILVRGVDVDPDQLRKRLQLKGTKAMSVVITRIGSRGVALICGPRERA	not soluble
SARLPKLAVFDLDYTLWPFWVDTHVDPPFHKSSDGTVRDRRGQDVRLYPEVPEVLKRLQSLGVPGAAASRTSEIEGANQLLELFDLFRCYLHSHPEWNESSNSKSRVRDICEGPNWAFEVQP	soluble
MSKDLVHPSLIRAGIVELEMAEETTDLINRTIESNQAHLQGEPLYVDSLPEDMSRLRIEDKSRRTKTEEEERDEGSSEEDNYLSEGQDPLIPFQNFLDEIGARAVKRLKTGEGFFRVWSALSDDIKGYVSTNIMTSGERDTKSIQIQTEPTASVSSGNESRHDSESMHDPNDKKDHTPDHDVVPDIESSTDKGEIRDIEGEVAHQVAESFSKKYKFPSRSSGIFLWNFEQLKMNLDDIVKAAMNVPGVERIAEKGGKLPLRCILGFVALDSSKRFRLLADNDKVARLIQEDINSYMARLEEAE	soluble
MASKASGGSTRNGRDSISKRLGVKRYDGQFVKAGNIIVRQRGTRIYPGKNVGMGSDYTLFALKDGYVYFETRRKKKFVSVLSPEEWEKVMAQKNGKVH	not soluble
KFTLGQFFGAAKIAGKAFMFKADEPEDLIAKIVEMADAARKGGFLALEEMEINNSFMQKGIDLLVDGHDADVVRAALQKDIALTDERHTQGTGVFRAFGD	not soluble
MSLYTLYSFGTPNGFKPTIMLEELTQPYTIELIDITQGEQFNPDFLKISPNNKIPVLHDQTNDFYLMESVAILQYLAEKHRQFLPETTKEKYTIIQWCYFQAAHIGPMFGQFGHFHRYAQERVPYAMTRYADESMRLLGVMEKQLVKAPFIGGSNYTIADMAIWPWIWCFQFIYGQTIDAKQFPSLMSWYQRISERQAVRATLTAYGREGHHHHHH	soluble
MSLKKSLTELISDLKGNENVVNWHEIEPREAKTRPMPESIDERIKAALSKRGIDELYTHQYSAFQYVQKGESIVTVTPTASGKTLCYNLPVLQSIAQDETNRALYLFPTKALAQDQKSELNEIIDEMGIDIKSFTYDGDTSPAIRQKVRKAGHIVITNPDMLHSAILPHHTKWVSLFENLKYIVIDELHTYRGVFGSHVANVIRRLKRICRFYGSDPVFICTSATIANPKELGEQLTGKPMRLVDDNGAPSGRKHFVFYNPPIVNKPLNIRRSATAEVNELAKEFLKNKVQTIVFARSRVRVEIILSHIQELVKKEIGTKSIRGYRGGYLPKERREIERGLREGDILGVVSTNALELGVDIGQLQVCVMTGYPGSVASAWQQAGRAGRRHGESLIIMVANSTPIDQYIVRHPEYFFNRSPESARINPENLIILVDHLKCAAYELPFRADEEFGAMEVSDILEYLQEEAVLHRNGERYHWASESFPASNISLRSASQENVVIVDQSDIANVRIIGEMDRFSAMTLLHDEAIYLHEGVQYQVEKLDWDHKKAYVRKVDVEYYTDANLAVQLKVLEIDKTKEKSRTSLHYGDVTVNALPTIFKKIKMTTFENIGSGPIHLPEEELHTSAAWLEIKTADEDIGEKTLEQLLLGISNVLQHIVPVYIMCDRNDVHVVSQIKAAHTGLPTIFLYDHYPGGIGLAEEVFKRFSDINEAAKQLITHCPCHDGCPSCIGTEIEGIKAKERILQLLDQMSEGHHHHHH	soluble
MGNLFCCVLVKQSDVAVKERFGKFQKVLNPGLQFVPWVIGDYVAGTLTLRLQQLDVQCETKTKDNVFVTVVASIQYRVLADKASDAFYRLSNPTTQIKAYVFDVIRACVPKLNLDDVFEQKNEIAKSVEEELDKAMTAYGYEILQTLIIDIEPDQQVKRAMNEINAAARMRVAASEKAEAEKIIQIKRAEGEAESKYLSGLGIARQRQAIVDGLRDSVLGFAGNVPGTSAKDVLDMVMMTQYFDTMRDIGATSKSSAVFIPHGPGAVSDVAAQIRNGLLQANNAS	soluble
